Measurements taken from patent US20260167721A1 (ABLEXIS, published 2026).
Residue numbers refer to the chain shown, from its start.

B1: CD3 × CD33-BspAb36 (bispecific antibody)
chain 1: not shown
chain 2: EVQLVQSGAEVKKPGSSVKVSCKASGYTITDSNIHWVRQAPGQSLEWIGYIYPYNGGTDYNQKFKNRATLTVDNPTNTAYMELSSLRSEDTAFYYCVNGNPWLAYWGQGTLVTVSSASTKGPSVFPLAPSSKSTSGGTAALGCLVKDYFPEPVTVSWNSGALTSGVHTFPAVLQSSGLYSLSSVVTVPSSSLGTQTYICNVNHKPSNTKVDKRVEPKSCDKTHTCPPCPAPEFEGGPSVFLFPPKPKDTLMISRTPEVTCVVVDVSHEDPEVKFNWYVDGVEVHNAKTKPREEQYNSTYRVVSVLTVLHQDWLNGKEYKCKVSNKALPASIEKTISKAKGQPREPQVCTLPPSREEMTKNQVSLSCAVKGFYPSDIAVEWESNGQPENNYKTTPPVLDSDGSFFLVSKLTVDKSRWQQGNVFSCSVMHEALHNRFTQKSLSLSPGK
chain 3: DIQLTQSPSTLSASVGDRVTITCRASESLDNYGIRFLTWFQQKPGKAPKLLMYAASNQGSGVPSRFSGSGSGTEFTLTISSLQPDDFATYYCQQTKEVPWSFGQGTKVEVKRTVAAPSVFIFPPSDEQLKSGTASVVCLLNNFYPREAKVQWKVDNALQSGNSQESVTEQDSKDSTYSLSSTLTLSKADYEKHKVYACEVTHQGLSSPVTKSFNRGEC
B2: CD3 × CD33-BspAb50 (bispecific antibody)
chain 1: not shown
chain 2: B1 chain 2
chain 3: B1 chain 3
B3: CD3 × CD33-BspAb42 (bispecific antibody)
chain 1: EVQLVESGGGLVKPGGSLRLSCAASGFTLSSYSMNWVRQAPGKCLEWVSSISRSGSYIYYADSVKGRFTISRDNAKNSLYLQMNSLRAEDTAVYYCAREKWELLYFDYWGQGTLVTVSSGGGGSGGGGSGGGGSGGGGSNFMLTQPHSVSESPGKTVTISCTRSSGSIASNYVQWYQQRPGSSPTTVIYEDNQRPSGVPDRFSGSIDSSSNSASLTISGLKTEDEADYYCQSYDSSNRVFGCGTKLTVLDKTHTCPPCPAPEFEGGPSVFLFPPKPKDTLMISRTPEVTCVVVDVSHEDPEVKFNWYVDGVEVHNAKTKPREEQYNSTYRVVSVLTVLHQDWLNGKEYKCKVSNKALPASIEKTISKAKGQPREPQVYTLPPCREEMTKNQVSLWCLVKGFYPSDIAVEWESNGQPENNYKTTPPVLDSDGSFFLYSKLTVDKSRWQQGNVFSCSVMHEALHNHYTQKSLSLSPGK
chain 2: B1 chain 2
chain 3: B1 chain 3
B4: CD3 × CD33-BspAb65 (bispecific antibody)
chain 1: NFMLTQPHSVSESPGKTVTIACTRSSGSIASNYVQWYQQRPGSSPTTVIYEDNQRPSGVPDRFSGSIDSSSNSASLTISGLKTEDEADYYCQSYDSSNQVFGCGTKLTVLGGGGSGGGGSGGGGSGGGGSQVTLKESGPGILQPSQTLSLTCSFSGFSLSTFGMGVGWIRQPSGKCLEWLAHIWWDDDKYYNPALKSRLTISKDTSKNQVFLKIANVDTADTATYYCARLGYYPYWFFDVWGTGTTVTVSSDKTHTCPPCPAPEFEGGPSVFLFPPKPKDTLMISRTPEVTCVVVDVSHEDPEVKFNWYVDGVEVHNAKTKPREEQYNSTYRVVSVLTVLHQDWLNGKEYKCKVSNKALPASIEKTISKAKGQPREPQVYTLPPCREEMTKNQVSLWCLVKGFYPSDIAVEWESNGQPENNYKTTPPVLDSDGSFFLYSKLTVDKSRWQQGNVFSCSVMHEALHNHYTQKSLSLSPGK
chain 2: B1 chain 2
chain 3: B1 chain 3
B5: CD3 × CD33-BspAb51 (bispecific antibody)
chain 1: not shown
chain 2: B1 chain 2
chain 3: B1 chain 3
B6: CD3 × CD33-BspAb39 (bispecific antibody)
chain 1: not shown
chain 2: B1 chain 2
chain 3: B1 chain 3
B7: CD3 × CD33-BspAb45 (bispecific antibody)
chain 1: EVQLVESGGGLVQPGGSLRLSCAASGFTFSRYSMNWVRQAPGKCLEWVSYISSSSSSIYYADSVKGRFTISRDNAKNSLYLQMNSLRDEDTAVYYCARDRRATLDYWGQGTLVTVSSGGGGSGGGGSGGGGSGGGGSNFMLTQPHSVSESPGKTVTISCTRSSGSIASNYVQWYQQRPGSSPTTVIYEDNQRPSGVPDRFSGSIDSSSNSASLTISGLKTEDEADYYCQSYDSSNHVFGCGTKLTVLDKTHTCPPCPAPEFEGGPSVFLFPPKPKDTLMISRTPEVTCVVVDVSHEDPEVKFNWYVDGVEVHNAKTKPREEQYNSTYRVVSVLTVLHQDWLNGKEYKCKVSNKALPASIEKTISKAKGQPREPQVYTLPPCREEMTKNQVSLWCLVKGFYPSDIAVEWESNGQPENNYKTTPPVLDSDGSFFLYSKLTVDKSRWQQGNVFSCSVMHEALHNHYTQKSLSLSPGK
chain 2: B1 chain 2
chain 3: B1 chain 3
B8: CD3 × CD33-BspAb52 (bispecific antibody)
chain 1: not shown
chain 2: B1 chain 2
chain 3: B1 chain 3
B9: CD3 × CD33-BspAb61 (bispecific antibody)
chain 1: NFMLTQPHSVSESPGKTVTISCTRSSGSIASNYVQWYQQRPGSSPTTVIYEDNQRPSGVPDRFSGSIDSSSNSASLTISGLKTEDEADYYCQSFDNSNRVFGCGTKLTVLGGGGSGGGGSGGGGSGGGGSEVQLVESGGGLVKPGGSLRLSCAASGFTFSRYSMNWVRQAPGKCLKWVSSISSSGSYKYYADSVKGRFTISRDNAKNSLYLQMNSLRAEDTAVYYCAREPPTLGMDYWGQGTLVTVSSDKTHTCPPCPAPEFEGGPSVFLFPPKPKDTLMISRTPEVTCVVVDVSHEDPEVKFNWYVDGVEVHNAKTKPREEQYNSTYRVVSVLTVLHQDWLNGKEYKCKVSNKALPASIEKTISKAKGQPREPQVYTLPPCREEMTKNQVSLWCLVKGFYPSDIAVEWESNGQPENNYKTTPPVLDSDGSFFLYSKLTVDKSRWQQGNVFSCSVMHEALHNHYTQKSLSLSPGK
chain 2: B1 chain 2
chain 3: B1 chain 3
B10: CD3 × CD33-BspAb37 (bispecific antibody)
chain 1: not shown
chain 2: B1 chain 2
chain 3: B1 chain 3
B11: CD3 × CD33-BspAb62 (bispecific antibody)
chain 1: NFMLTQPHSVSESPGKTVTISCTRSSGSIASNYVQWYQQRPGSSPTTVIYEDNQRPSGVPDRFSGSIDSSSNSASLTISGLKTEDEADYYCQSYDSSNHVFGCGTKLTVLGGGGSGGGGSGGGGSGGGGSEVQLVESGGGLVQPGGSLRLSCAASGFTFSRYSMNWVRQAPGKCLEWVSYISSSSSSIYYADSVKGRFTISRDNAKNSLYLQMNSLRDEDTAVYYCARDRRATLDYWGQGTLVTVSSDKTHTCPPCPAPEFEGGPSVFLFPPKPKDTLMISRTPEVTCVVVDVSHEDPEVKFNWYVDGVEVHNAKTKPREEQYNSTYRVVSVLTVLHQDWLNGKEYKCKVSNKALPASIEKTISKAKGQPREPQVYTLPPCREEMTKNQVSLWCLVKGFYPSDIAVEWESNGQPENNYKTTPPVLDSDGSFFLYSKLTVDKSRWQQGNVFSCSVMHEALHNHYTQKSLSLSPGK
chain 2: B1 chain 2
chain 3: B1 chain 3
B12: CD3 × CD33-BspAb38 (bispecific antibody)
chain 1: not shown
chain 2: B1 chain 2
chain 3: B1 chain 3
B13: ABL-CD3-56 (antibody, V domains shown)
VH: EVQLVESGGGLVKPGGSLRLSCVASGFTFSRYSMNWVRQAPGKGLEWVSSISSSSRYTYYADSLKGRFIMSRDNAKNSLFLQMNSLRAEDTAVYYCARNLYNALDYWGQGTLVTVSS
VL: FMLTQPHSVSESPGKTVTISCTRSSGSIASNYVQWYQQRPGSSPTTVIYEDNQRPSGVPDRFSGSIDSSSNSASLTISGLQTEDEADYYCQSYDSSNRVFGGGTKLTVL
notes: Chimeric hybridoma mAb: human V, CH1, upper hinge; mouse middle hinge, CH2, CH3
B14: ABL-CD3-54 (antibody, V domains shown)
VH: EVQLVESGGGLVKPGGSLRLSCAASGFTFSSYSMNWVRQAPGKGLEWVSSISRSSRYIFYADSVRGRFTISRDNAKNSLYLQMNSLRAEDTAVYYCAREKRELLFDYWGQGTLVTVSS
VL: NSMLTQPHSVSESPGKTVTISCTRSSGSIASYYVQWYQQRPGSSPTTVIYEDNQRPSGVPDRFSGSIDSSSNSASLTISGLKTEDEADYYCQSFDSSNRVFGGGTKLTVL
notes: as for B13
B15: ABL-CD3-55 (antibody, V domains shown)
VH: B14 VH with S31I, R53S, S54G, R56S, F59Y, R65K, N77S, Y80F
VL: B14 VL with S2F, Y32N, S69R, F94Y
notes: as for B13

Tests used:
recombinant CD3 proteins = assay: Octet (BLI), bispecific antibody against recombinant CD3 proteins
[1] = target: T1, recombinant human CD3 epsilon/delta heterodimer (human, UniProt P07766 23-126; P04234 22-105); assay: Octet BLI, mAb on FAB2G sensor, hCD3 E/D 200-50 nM; R^2 0.99
T1 construct: Recombinant protein in solution (200-50 nM) in the Octet assay; also called hCD3 E/D; human CD3E/D
T1 sequence (P07766 23-126, stated change not applied, chain 1 of 2): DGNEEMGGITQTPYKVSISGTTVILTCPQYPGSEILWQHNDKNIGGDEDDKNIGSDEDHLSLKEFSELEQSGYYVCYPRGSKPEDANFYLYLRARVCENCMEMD
T1 sequence (P04234 22-105, stated change not applied, chain 2 of 2): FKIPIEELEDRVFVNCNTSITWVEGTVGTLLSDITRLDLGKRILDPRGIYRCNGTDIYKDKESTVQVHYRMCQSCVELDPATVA

[2] = target: T2, recombinant human CD3 epsilon/gamma heterodimer (human, UniProt P07766 23-126; P09693 23-116); assay: Octet BLI, mAb on FAB2G sensor, hCD3 E/G 200-50 nM; R^2 0.99
T2 construct: Recombinant protein in solution (200-50 nM) in the Octet assay; also called hCD3 E/G
T2 sequence (P07766 23-126, chain 1 of 2): as the sequence (P07766 23-126, stated change not applied, chain 1 of 2) above
T2 sequence (P09693 23-116, chain 2 of 2): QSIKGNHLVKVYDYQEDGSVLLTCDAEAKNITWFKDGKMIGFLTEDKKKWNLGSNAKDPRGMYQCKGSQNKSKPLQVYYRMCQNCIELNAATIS

Row | Binder | Kd (recombinant CD3 proteins) | Response (recombinant CD3 proteins) | koff (recombinant CD3 proteins) | kon (recombinant CD3 proteins) | Kd [1] | Response [1] | koff [1] | kon [1] | Kd [2] | Response [2] | koff [2] | kon [2]
1 | B1 | 205 nM | 0.42 | 0.00334 s⁻¹ | 16300 M⁻¹ s⁻¹ |  |  |  |  |  |  |  | 
2 | B2 | 125 nM | 0.33 | 0.00262 s⁻¹ | 21000 M⁻¹ s⁻¹ |  |  |  |  |  |  |  | 
3 | B3 | 133 nM | 0.51 | 0.0186 s⁻¹ | 139000 M⁻¹ s⁻¹ |  |  |  |  |  |  |  | 
4 | B4 | 11.7 nM | 0.09 | 0.00134 s⁻¹ | 114000 M⁻¹ s⁻¹ |  |  |  |  |  |  |  | 
5 | B5 | 74 nM | 0.26 | 0.00232 s⁻¹ | 31400 M⁻¹ s⁻¹ |  |  |  |  |  |  |  | 
6 | B6 | 299 nM | 0.1 | 0.117 s⁻¹ | 391000 M⁻¹ s⁻¹ |  |  |  |  |  |  |  | 
7 | B7 | 177 nM | 0.58 | 0.0529 s⁻¹ | 299000 M⁻¹ s⁻¹ |  |  |  |  |  |  |  | 
8 | B8 | 19.5 nM | 0.07 | 0.00751 s⁻¹ | 386000 M⁻¹ s⁻¹ |  |  |  |  |  |  |  | 
9 | B9 | 7.62 nM | 0.74 | 0.00187 s⁻¹ | 245000 M⁻¹ s⁻¹ |  |  |  |  |  |  |  | 
10 | B10 | 213 nM | 0.34 | 0.00336 s⁻¹ | 15800 M⁻¹ s⁻¹ |  |  |  |  |  |  |  | 
11 | B11 | 85.9 nM | 0.25 | 0.0474 s⁻¹ | 552000 M⁻¹ s⁻¹ |  |  |  |  |  |  |  | 
12 | B12 | 81 nM | 0.28 | 0.0203 s⁻¹ | 250000 M⁻¹ s⁻¹ |  |  |  |  |  |  |  | 
13 | B13 |  |  |  |  | 3.96 nM | 1.24 | 0.000522 s⁻¹ | 132000 M⁻¹ s⁻¹ | 0.94 nM | 1.3 | 0.000102 s⁻¹ | 109000 M⁻¹ s⁻¹
14 | B14 |  |  |  |  | 17.6 nM | 0.87 | 0.00267 s⁻¹ | 152000 M⁻¹ s⁻¹ | 19.3 nM | 0.87 | 0.00258 s⁻¹ | 134000 M⁻¹ s⁻¹
15 | B15 |  |  |  |  | 183 nM | 0.13 | 0.069 s⁻¹ | 376000 M⁻¹ s⁻¹ | 141 nM | 0.08 | 0.0894 s⁻¹ | 636000 M⁻¹ s⁻¹
